One block for each substance: values may come before it.
What was measured:
Experiment in all cases: cell-based or functional assay
[1] = biological target: CD80 (mouse) (UniProt Q00609)
[2] = biological target: CD54 (mouse) (UniProt P13597)
[3] = biological target: H-2K^b/OVAI peptide complex (mouse)

Chain of UniProt P13597 (P13597 28-537): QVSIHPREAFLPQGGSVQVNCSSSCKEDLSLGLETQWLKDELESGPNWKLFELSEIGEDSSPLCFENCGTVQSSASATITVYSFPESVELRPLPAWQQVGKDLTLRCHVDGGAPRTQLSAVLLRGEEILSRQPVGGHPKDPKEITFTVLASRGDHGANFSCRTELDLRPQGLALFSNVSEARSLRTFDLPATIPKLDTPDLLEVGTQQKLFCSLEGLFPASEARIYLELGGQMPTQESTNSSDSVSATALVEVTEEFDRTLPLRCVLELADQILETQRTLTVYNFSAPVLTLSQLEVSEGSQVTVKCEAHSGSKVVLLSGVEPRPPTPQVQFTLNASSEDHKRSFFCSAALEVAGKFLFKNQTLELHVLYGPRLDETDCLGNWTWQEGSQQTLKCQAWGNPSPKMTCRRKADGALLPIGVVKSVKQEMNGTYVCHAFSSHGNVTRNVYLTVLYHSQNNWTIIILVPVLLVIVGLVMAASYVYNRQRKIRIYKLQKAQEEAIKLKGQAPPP
Chain of UniProt Q00609 (Q00609 38-306): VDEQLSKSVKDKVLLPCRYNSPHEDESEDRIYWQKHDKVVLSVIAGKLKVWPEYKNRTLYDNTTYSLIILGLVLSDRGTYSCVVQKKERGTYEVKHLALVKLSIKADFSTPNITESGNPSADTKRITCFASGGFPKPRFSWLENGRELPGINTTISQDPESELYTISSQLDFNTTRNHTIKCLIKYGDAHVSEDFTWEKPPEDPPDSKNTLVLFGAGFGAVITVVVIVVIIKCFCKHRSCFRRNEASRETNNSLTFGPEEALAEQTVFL

inhibition of Th-APC-stimulated OT I CD8^+ T cell proliferative response by CTLA-4/Ig fusion protein (15 µg/ml) [1]: 58%
inhibition of aTEXO-stimulated OT I CD8^+ T cell proliferative response by CTLA-4/Ig (10 µg/ml) [1]: 49%
inhibition of mDCEXO-stimulated OT I CD8^+ T cell proliferative response by CTLA-4/Ig (10 µg/ml) [1]: 56%
Substance: CD28 (from UniProt P31041 20-218) (receptor)

inhibition of Th-APC-stimulated OT I CD8^+ T cell proliferative response by anti-LFA-1 Ab (15 µg/ml) [2]: 50%
inhibition of aTEXO-stimulated OT I CD8^+ T cell proliferative response by anti-LFA-1 Ab (10 µg/ml) [2]: 52%
inhibition of mDCEXO-stimulated OT I CD8^+ T cell proliferative response by anti-LFA-1 Ab (10 µg/ml) [2]: 49%
Substance: LFA-1 (from UniProt P24063 24-1162; P11835 24-771) (receptor)

inhibition of Th-APC-stimulated OT I CD8^+ T cell proliferative response by anti-MHC class I Ab (15 µg/ml) [3]: 38%
inhibition of aTEXO-stimulated OT I CD8^+ T cell proliferative response by anti-H-2K^b Ab (10 µg/ml) [3]: 49%
inhibition of mDCEXO-stimulated OT I CD8^+ T cell proliferative response by anti-MHC class I Ab (10 µg/ml) [3]: 62%
Substance: OVA-specific TCR of OT I CD8^+ T cells
